# In article PMC9672406:
# Substrate: C=C(O[C@@H]1C=C(C(=O)O)C=C[C@H]1O)C(=O)O
# Assay: purified protein
# Conditions: 100 mM Tris/HCl pH 7.5, 22 °C, 5 min, 0.05 μM enzyme
protein,measurement,value
ScMqnA (chorismate dehydratase MqnA) (Streptomyces coelicolor A3(2)) (protein) MDNSRTRPRVGHIQFLNCLPLYWGLARTGTLLDFELTKDTPEKLSEQLVRGDLDIGPVTLVEFLKNADDLVAFPDIAVGCDGPVMSCVIVSQVPLDRLDGARVALGSTSRTSVRLAQLLLSERFGVQPDYYTCPPDLSLMMQEADAAVLIGDAALRANMIDGPRYGLDVHDLGALWKEWTGLPFVFAVWAARRDYAEREPVITRKVHEAFLASRNLSLEEVEKVAEQAARWEAFDEDTLAKYFTTLDFRFGAPQLEAVTEFARRVGPTTGFPADVKVELLKP,Km,121 ± 38 µM
same,Vmax,0.458 µmol/min/mg
same,kcat,0.24 ± 0.02 s⁻¹
ScMqnA (chorismate dehydratase MqnA) (Streptomyces coelicolor A3(2); Y242F) (protein) MDNSRTRPRVGHIQFLNCLPLYWGLARTGTLLDFELTKDTPEKLSEQLVRGDLDIGPVTLVEFLKNADDLVAFPDIAVGCDGPVMSCVIVSQVPLDRLDGARVALGSTSRTSVRLAQLLLSERFGVQPDYYTCPPDLSLMMQEADAAVLIGDAALRANMIDGPRYGLDVHDLGALWKEWTGLPFVFAVWAARRDYAEREPVITRKVHEAFLASRNLSLEEVEKVAEQAARWEAFDEDTLAKFFTTLDFRFGAPQLEAVTEFARRVGPTTGFPADVKVELLKP,Km,377 ± 106 µM
same,Vmax,1.06 µmol/min/mg
same,kcat,0.56 ± 0.06 s⁻¹
ScMqnA (chorismate dehydratase MqnA) (Streptomyces coelicolor A3(2); N17A) (protein) MDNSRTRPRVGHIQFLACLPLYWGLARTGTLLDFELTKDTPEKLSEQLVRGDLDIGPVTLVEFLKNADDLVAFPDIAVGCDGPVMSCVIVSQVPLDRLDGARVALGSTSRTSVRLAQLLLSERFGVQPDYYTCPPDLSLMMQEADAAVLIGDAALRANMIDGPRYGLDVHDLGALWKEWTGLPFVFAVWAARRDYAEREPVITRKVHEAFLASRNLSLEEVEKVAEQAARWEAFDEDTLAKYFTTLDFRFGAPQLEAVTEFARRVGPTTGFPADVKVELLKP,Km,257 ± 87 µM
same,Vmax,0.473 µmol/min/mg
same,kcat,0.25 ± 0.02 s⁻¹
